Experimental data reported in the supplement of paper PMC6757056.
± gives the standard deviation of the averaged measurements.

B1: library; a variant is named by its letters at N, in order (parent)
chain: GCUGUCACCGGUGUAUUACCCUAGUGGUCGACCGGUCUGAUGAGUCUNNNNNNAGACGAAACAGC

Assays:
[1] = variants of: B1; experiment: FACS-Seq fitted mean relative fluorescence mCherry/BFP without ligand (log10 relative fluorescence); ligand: hypoxanthine (xanthine aptamer); higher = higher reporter protein expression; conditions: HEK293T, ligand present: no
Protocol: (§1)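 Hammerhead (sTRSV) ribozyme switch libraries with a ligand aptamer grafted on stem I and a randomized N4-6 loop II, cloned into the 3' UTR of mCherry and transiently transfected into HEK293T cells; RNA-Seq 72 h post transfection with ligand added 1 h before transfection; RNA read count / plasmid DNA read count normalized to the non-cleaving sTRSVctl (x100), log10; sequences with >100 DNA reads. FACS-Seq: lentiviral library sorted into 6 bins after 48 h ligand, log-normal fit mean of mCherry/BFP scaled to controls. Printed sequences are partial switch sequences.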

[2] = variants of: B1; experiment: normalized RNA/DNA level with ligand (relative to sTRSVctl = 100) (log10 (% of sTRSVctl)); ligand: hypoxanthine (xanthine aptamer); higher = less ribozyme self-cleavage, higher mRNA level; conditions: ligand concentration (+) RNA-Seq: 5 mM, HEK293T, reporter: mCherry (pCS4076), ligand present: yes
Protocol: as §1

[3] = variants of: B1; experiment: normalized RNA/DNA level without ligand (relative to sTRSVctl = 100) (log10 (% of sTRSVctl)); ligand: hypoxanthine (xanthine aptamer); higher = less ribozyme self-cleavage, higher mRNA level; conditions: HEK293T, reporter: mCherry (pCS4076), ligand present: no
Protocol: as §1

[4] = variants of: B1; experiment: FACS-Seq fitted mean relative fluorescence mCherry/BFP with ligand (log10 relative fluorescence); ligand: hypoxanthine (xanthine aptamer); ligand concentration (+) FACS-Seq: 5 mM; higher = higher reporter protein expression; conditions: HEK293T, ligand present: yes
Protocol: as §1

Variant | FACS-Seq fitted mean (log10) [1] | normalized RNA/DNA level with ligand (log10) [2] | normalized RNA/DNA level without ligand (log10) [3] | FACS-Seq fitted mean (log10) [4]
AAACAG | -0.248 ± 0.031 | 1.77 ± 0.058 | 1.35 ± 0.055 | 0.234 ± 0.03
AAACAU | 0.519 ± 0.022 | 1.86 ± 0.028 | 1.762 ± 0.0068 | 0.664 ± 0.099
AAACAA | 0.4127 ± 0.0021 | 1.902 ± 0.011 | 1.73 ± 0.022 | 0.382 ± 0.014
CAAUGG | -0.334 ± 0.031 | 1.82 ± 0.071 | 1.42 ± 0.042 | 0.178 ± 0.12
CAAUGU | 0.483 ± 0.12 | 1.91 ± 0.034 | 1.86 ± 0.062 | 0.48 ± 0.078
CACACU | 0.146 ± 0.034 | 1.953 ± 0.0082 | 1.87 ± 0.036 | 0.266 ± 0.0029
GACACG | 0.359 ± 0.011 | 1.9 ± 0.045 | 1.51 ± 0.018 | 0.695 ± 0.12
GACACC | 0.458 ± 0.072 | 1.92 ± 0.022 | 1.8641 ± 0.00014 | 0.365 ± 0.049
GAAAUA | 0.105 ± 0.023 | 1.92 ± 0.055 | 1.85 ± 0.028 | 0.082 ± 0.037
GAAAUG | 0.0921 ± 0.028 | 1.86 ± 0.075 | 1.44 ± 0.035 | 0.497 ± 0.047
GACAGA | 0.4408 ± 0.00062 | 1.91 ± 0.038 | 1.65 ± 0.035 | 0.594 ± 0.088
GAAGCG | 0.1393 ± 0.001 | 1.8561 ± 0.0014 | 1.4 ± 0.075 | 0.56 ± 0.016
GAAGCA | 0.802 ± 0.069 | 1.96 ± 0.03 | 1.76 ± 0.049 | 0.779 ± 0.075
UAAGUG | -0.334 ± 0.04 | 1.891 ± 0.0081 | 1.653 ± 0.015 | 0.146 ± 0.027
GAACUA | 0.557 ± 0.024 | 1.873 ± 0.012 | 1.815 ± 0.0032 | 0.182 ± 0.072
GAACUU | 0.731 ± 0.013 | 1.91 ± 0.11 | 1.8654 ± 0.0014 | 0.616 ± 0.025
CAAGCA | 0.544 ± 0.054 | 1.964 ± 0.012 | 1.7 ± 0.063 | 0.609 ± 0.094
CAAGCC | 0.17 ± 0.076 | 1.96 ± 0.011 | 1.87 ± 0.028 | 0.404 ± 0.0094
AAAGGG | 0.0328 ± 0.0085 | 1.753 ± 0.0035 | 1.32 ± 0.073 | 0.292 ± 0.084
AAAGGC | -0.66 ± 0.0082 | 1.91 ± 0.035 | 1.781 ± 0.0092 | -0.684 ± 0.085
AAAGGU | 0.195 ± 0.021 | 1.9 ± 0.054 | 1.61 ± 0.053 | 0.526 ± 0.025
AAAGGA | 0.0795 ± 0.041 | 1.9 ± 0.031 | 1.58 ± 0.037 | -0.105 ± 0.2
AAACGU | 0.362 ± 0.036 | 1.877 ± 0.0019 | 1.63 ± 0.043 | 0.519 ± 0.03
AAACGA | 0.38 ± 0.042 | 1.908 ± 0.0036 | 1.63 ± 0.046 | 0.5899 ± 0.0039

Variant | FACS-Seq fitted mean (log10) [1] | normalized RNA/DNA level with ligand (log10) [2] | normalized RNA/DNA level without ligand (log10) [3] | FACS-Seq fitted mean (log10) [4]
AAACGG | 0.034 ± 0.0048 | 1.73 ± 0.061 | 1.23 ± 0.082 | 0.486 ± 0.027
UAAAUG | 0.306 ± 0.023 | 1.936 ± 0.015 | 1.73 ± 0.035 | 0.483 ± 0.081
UAAAUA | 0.398 ± 0.012 | 1.92 ± 0.026 | 1.836 ± 0.002 | 0.49 ± 0.045
UAAAUU | 0.543 ± 0.057 | 1.92 ± 0.024 | 1.85 ± 0.035 | 0.516 ± 0.066
AACACA | 0.00339 ± 0.015 | 1.9 ± 0.055 | 1.83 ± 0.023 | -0.0536 ± 0.037
AACACC | 0.754 ± 0.017 | 1.9322 ± 0.00016 | 1.9 ± 0.02 | 0.806 ± 0.073
AACACG | 0.0502 ± 0.00077 | 1.85 ± 0.046 | 1.4 ± 0.045 | 0.412 ± 0.037
GAACAC | 0.66 ± 0.029 | 1.95 ± 0.029 | 1.74 ± 0.024 | 0.622 ± 0.049
GAACAU | 0.466 ± 0.11 | 1.907 ± 0.00016 | 1.766 ± 0.01 | 0.349 ± 0.12
GAACAG | 0.213 ± 0.041 | 1.8069 ± 0.00086 | 1.42 ± 0.061 | 0.674 ± 0.014
GAACAA | 0.477 ± 0.021 | 1.91 ± 0.046 | 1.732 ± 0.0073 | 0.62 ± 0.022
UAACUA | 0.0691 ± 0.014 | 1.921 ± 0.0071 | 1.879 ± 0.0092 | -0.0104 ± 0.0014
UAACUG | 0.142 ± 0.042 | 1.896 ± 0.018 | 1.64 ± 0.017 | 0.31 ± 0.084
UAAAGU | 0.334 ± 0.017 | 1.89 ± 0.05 | 1.54 ± 0.076 | 0.708 ± 0.063
UAAGCG | -0.442 ± 0.031 | 1.909 ± 0.0091 | 1.6 ± 0.024 | 0.233 ± 0.018
AACAAU | 0.434 ± 0.044 | 1.89 ± 0.023 | 1.74 ± 0.042 | 0.249 ± 0.16
AACAAG | 0.124 ± 0.013 | 1.85 ± 0.051 | 1.41 ± 0.098 | 0.462 ± 0.033
AAAUAU | -0.168 ± 0.02 | 1.924 ± 0.012 | 1.763 ± 0.0044 | -0.451 ± 0.1
AAAUAG | 0.258 ± 0.041 | 1.842 ± 0.0027 | 1.44 ± 0.018 | 0.487 ± 0.016
AAAUAA | 0.684 ± 0.016 | 1.89 ± 0.024 | 1.74 ± 0.025 | 0.775 ± 0.11
UAACAA | -0.143 ± 0.032 | 1.9154 ± 0.0012 | 1.7546 ± 0.00028 | -0.012 ± 0.012
UAACAG | 0.366 ± 0.019 | 1.849 ± 0.012 | 1.5574 ± 0.00043 | 0.581 ± 0.031
UAAUGG | 0.218 ± 0.021 | 1.87 ± 0.044 | 1.53 ± 0.052 | 0.457 ± 0.038
AAACUG | 0.227 ± 0.039 | 1.822 ± 0.0094 | 1.43 ± 0.051 | 0.46 ± 0.021

Variant | FACS-Seq fitted mean (log10) [1] | normalized RNA/DNA level with ligand (log10) [2] | normalized RNA/DNA level without ligand (log10) [3] | FACS-Seq fitted mean (log10) [4]
AAACUU | 0.777 ± 0.048 | 1.92 ± 0.011 | 1.856 ± 0.0063 | 0.674 ± 0.075
AAAUCA | 0.598 ± 0.077 | 1.927 ± 0.0036 | 1.8121 ± 0.0018 | 0.629 ± 0.082
AAAUCG | 0.0899 ± 0.022 | 1.86 ± 0.04 | 1.36 ± 0.014 | 0.509 ± 0.04
AAACCA | 0.0882 ± 0.014 | 1.924 ± 0.014 | 1.81 ± 0.016 | 0.122 ± 0.038
AAACCG | 0.278 ± 0.022 | 1.8 ± 0.029 | 1.37 ± 0.029 | 0.73 ± 0.045
AAACCU | 0.484 ± 0.082 | 1.94 ± 0.033 | 1.87 ± 0.02 | 0.2749 ± 0.00055
AAACCC | 0.474 ± 0.095 | 1.95 ± 0.022 | 1.833 ± 0.0068 | 0.431 ± 0.021
CAAGGC | -0.0753 ± 0.017 | 1.936 ± 0.017 | 1.84 ± 0.024 | -0.0781 ± 0.056
CAAGGU | 0.232 ± 0.021 | 1.883 ± 0.015 | 1.78 ± 0.029 | 0.388 ± 0.027
UAACGA | 0.432 ± 0.054 | 1.91 ± 0.033 | 1.6909 ± 0.0004 | 0.324 ± 0.072
UAACGC | 0.329 ± 0.043 | 1.92 ± 0.058 | 1.74 ± 0.031 | 0.365 ± 0.011
UAACGU | 0.145 ± 0.021 | 1.914 ± 0.01 | 1.61 ± 0.038 | 0.365 ± 0.051
UAACGG | 0.07847 ± 0.00013 | 1.82 ± 0.083 | 1.376 ± 0.0076 | 0.473 ± 0.081
CAAAUA | 0.317 ± 0.014 | 1.9 ± 0.06 | 1.7391 ± 0.00044 | 0.196 ± 0.037
CAAAUC | 0.445 ± 0.1 | 1.95 ± 0.039 | 1.927 ± 0.0086 | 0.495 ± 0.037
GAAUGU | 0.27 ± 0.024 | 1.91 ± 0.022 | 1.718 ± 0.0052 | 0.381 ± 0.07
GAAUGG | -0.206 ± 0.053 | 1.76 ± 0.037 | 1.216 ± 0.012 | 0.417 ± 0.012
GAAUGA | 0.481 ± 0.081 | 1.922 ± 0.0024 | 1.66 ± 0.057 | 0.688 ± 0.028
GAAUGC | 0.275 ± 0.016 | 1.863 ± 0.014 | 1.53 ± 0.03 | 0.577 ± 0.011
GAAGAA | 0.4206 ± 0.0035 | 1.9256 ± 0.00044 | 1.677 ± 0.013 | 0.5245 ± 0.001
GAAGAC | 0.249 ± 0.014 | 1.921 ± 0.0023 | 1.63 ± 0.026 | 0.505 ± 0.069
GAAGAG | -0.121 ± 0.02 | 1.79 ± 0.022 | 1.27 ± 0.032 | 0.521 ± 0.037
GAAGGG | -0.0424 ± 0.023 | 1.806 ± 0.01 | 1.324 ± 0.0061 | 0.431 ± 0.059
GAAGGA | 0.247 ± 0.034 | 1.92 ± 0.021 | 1.64 ± 0.031 | 0.559 ± 0.021
